Results: patent US20130330359A1 (AbbVie / Abbott, published 2013)
Changes are numbered by the printed parent chain.

T1: carrier free RGMb (R&D Systems) (UniProt Q6NW40 46-413, limits assumed)
T1 construct: also called RGMb-CF
T1 sequence (looked up): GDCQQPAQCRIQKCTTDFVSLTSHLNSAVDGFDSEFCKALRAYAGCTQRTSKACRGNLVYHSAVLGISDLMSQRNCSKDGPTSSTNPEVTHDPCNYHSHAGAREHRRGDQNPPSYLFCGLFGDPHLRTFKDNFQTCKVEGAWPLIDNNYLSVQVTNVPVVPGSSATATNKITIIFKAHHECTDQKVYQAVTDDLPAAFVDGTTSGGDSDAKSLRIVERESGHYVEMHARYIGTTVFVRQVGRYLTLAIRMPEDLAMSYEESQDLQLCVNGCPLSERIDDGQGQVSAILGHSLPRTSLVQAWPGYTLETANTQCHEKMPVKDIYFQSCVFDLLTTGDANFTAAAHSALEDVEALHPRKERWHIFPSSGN

T2: carrier free RGMc (R&D Systems) (human, UniProt Q6ZVN8 36-400)
T2 construct: also called RGMc-CF
T2 sequence (looked up): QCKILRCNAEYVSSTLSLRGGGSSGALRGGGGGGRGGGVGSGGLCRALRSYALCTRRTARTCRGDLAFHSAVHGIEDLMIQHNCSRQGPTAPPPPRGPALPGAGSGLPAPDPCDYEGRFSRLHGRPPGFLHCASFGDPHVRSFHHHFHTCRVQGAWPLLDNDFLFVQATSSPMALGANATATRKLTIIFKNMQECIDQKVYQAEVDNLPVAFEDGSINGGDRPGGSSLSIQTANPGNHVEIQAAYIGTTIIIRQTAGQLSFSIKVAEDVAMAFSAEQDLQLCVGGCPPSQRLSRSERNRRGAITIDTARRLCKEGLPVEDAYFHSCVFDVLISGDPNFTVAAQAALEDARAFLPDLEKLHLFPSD

T3: carrier free RGMa (R&D Systems) (UniProt Q96B86 48-422, limits assumed)
T3 construct: also called RGMa-CF
T3 sequence (looked up): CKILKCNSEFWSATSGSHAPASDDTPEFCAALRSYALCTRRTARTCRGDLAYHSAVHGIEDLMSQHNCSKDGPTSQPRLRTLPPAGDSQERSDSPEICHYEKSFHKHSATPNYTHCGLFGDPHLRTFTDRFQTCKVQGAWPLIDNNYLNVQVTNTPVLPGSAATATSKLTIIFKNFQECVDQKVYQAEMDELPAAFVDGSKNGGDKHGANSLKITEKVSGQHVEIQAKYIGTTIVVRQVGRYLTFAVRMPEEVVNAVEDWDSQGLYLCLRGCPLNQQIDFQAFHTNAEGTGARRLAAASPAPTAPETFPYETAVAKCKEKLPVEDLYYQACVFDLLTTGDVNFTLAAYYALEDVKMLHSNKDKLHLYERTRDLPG

B1: 1A-2860-475 (antibody, V domains shown)
VH: DVLLQESGPDLVKPSQSLSLTCTVTGYSISSGYSWHWIRQFPGNKLEWMAYIHYTGNTNYNPSLKSRISITRDTSKNQFFLHLNSVTTEDTATYYCALFGLSGFWGQGTLVTVSA
VL: DVLMTQTPLSLPVSLGDQASISCRSSQTIVHSNGNTYLDWYLQKPGQSPKVLIYKVSNRFSGVPDRFSGSGSGTDFTLKISRVEAEDLGVYFCLQGSHVPWTFGGGTQLEIKR
notes: The parent line 1A-2860 and subclone 1A-2860-177 used in the assays are treated here as the same antibody; also called 1A-2860-177
B2: 1A-2989-187 (antibody, V domains shown)
VH: EVQLQQSGAELVRSGASVKLSCTASGFNIRDFYIHWVKQRPEQGLEWLGWIDPENGDIEYAPKFQGKATMTADTSSNTAYLQLNSLTSEDTALYYCNGNGYYLDYWGQGTTLTVSS
VL: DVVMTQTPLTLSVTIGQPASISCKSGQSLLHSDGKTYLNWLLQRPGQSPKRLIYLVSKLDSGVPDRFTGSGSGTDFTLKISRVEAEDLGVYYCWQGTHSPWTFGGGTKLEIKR
B3: 1B-3363-715 (antibody, V domains shown)
VH: DVQLQESGPDLVKPSQSLSLTCTVTGYSITSGYSWHWIRQFPGNKLEWMGYIHYSGNTDYNPSLKSRISFTRDTSKNQFFLQLNSVTTEDTATYFCAIGTGPWGQGTTLTVSS
VL: B1 VL with T28N, N35H, D39E, V51L, F92Y, L94F, Q108K
notes: The parent line 1B-3363 and subclone 1B-3363-502 used in the assays are treated here as the same antibody; also called 1B-3363-502

Molecular target: T1, carrier free RGMb (R&D Systems)
Experiment: direct EIA: carrier-free RGMb coated at 0.5 ug/mL; supernatant diluted 1:125; goat anti-mouse IgG-HRPO
Description: (§1) Clones were then tested for cross-reactivity with RGMa and RGMb by EIA. Carrier free RGMa, RGMb, or RGMc (R&D Systems) was coated on the solid phase of micro-titer EIA plates at 0.5 ug/mL. After the antigen had been coated on the solid phase, it was removed and any open binding sites on the plates were blocked using fish gel block solution. The wells were washed with distilled water following this incubation. Cell supernatants and control reagents were added to the blocked plates and allowed to incubate at room temperature for at least one hour. The negative control was a purified mouse mAb from a different antigen system. The positive control for RGMa, RGMb, & RGMc was a goat anti-RGMa, RGMb, or RGMc polyclonal antibody (R&D Systems). Following this incubation, the solutions were removed from the plates and they were washed with distilled water. Donkey anti-Goat IgG-HRPO diluted to approximately 200 ng/mL in block solution was added to the plates with the positive control test samples and goat anti-mouse IgG-HRPO (Jackson Immunoresearch) diluted to approximately 200 ng/mL in block solution was added to the plates with the fusion #1 test samples. All plates were allowed to incubate for 30 minutes at room temperature. The plates were washed with distilled water and o-phenylenediamine substrate was used as the chromogen to generate signal. Plates were read at 492 nm and the results were analyzed.

| Binder | absorbance at 492 nm |
| --- | --- |
| B1 | 0.06 |
| B2 | 0.07 |
| B3 | 0.09 |

Molecular target: T2, carrier free RGMc (R&D Systems)
Experiment: direct EIA: carrier-free RGMc coated at 0.5 ug/mL; supernatant diluted 1:125; goat anti-mouse IgG-HRPO
Description: as §1

| Binder | absorbance at 492 nm |
| --- | --- |
| B1 | 1.34 |
| B2 | 1.58 |
| B3 | 2.53 |

Molecular target: T3, carrier free RGMa (R&D Systems)
Experiment: direct EIA: carrier-free RGMa coated at 0.5 ug/mL; supernatant diluted 1:125; goat anti-mouse IgG-HRPO
Description: as §1

| Binder | absorbance at 492 nm |
| --- | --- |
| B1 | 0.08 |
| B2 | 0.07 |
| B3 | 0.09 |

Molecular target: T4, mouse:human chimeric antibody (used as human IgG / human IgG Fc antigen)
T4 construct: also called Hu IgG; human IgG Fc portion
Experiment: direct EIA: mouse:human chimeric antibody coated at 1.0 ug/mL; supernatant diluted 1:125; goat anti-mouse IgG Fc-HRPO
Description: A mouse:human chimeric antibody or RGMc-huFc was coated on the solid phase of micro-titer EIA plates at 1.0 ug/mL. After the antigen had been coated on the solid phase, it was removed and any open binding sites on the plates were blocked using BSA block solution. The wells were washed with distilled water. Cell supernatants and control reagents were added to the blocked plates and allowed to incubate at room temperature for at least one hour. The negative control was a purified mAb from a different antigen system. The positive control for human IgG was a purified anti-hu IgG mAb developed against another antigen containing human IgG Fc carrier protein. The RGMc positive control is Novus mab 1C12. Following this incubation, the solutions were removed from the plates and they were washed with distilled water. Goat anti-mouse IgG Fc-HRPO (Jackson Immunoresearch) diluted to approximately 200 ng/mL in block solution was added to the plates and allowed to incubate for 30 minutes at room temperature. The plates were washed with distilled water and o-phenylenediamine substrate (Abbott Laboratories) was used as the chromogen to generate signal. Plates were read at 492 nm and the results were analyzed.

| Binder | absorbance at 492 nm |
| --- | --- |
| B1 | 0.06 |
| B2 | 0.06 |
| B3 | 0.07 |
